Reference: patent US20260315572 (published 2026)
Starred links: 1 amine or outer side, 2 acyl side, 3 side chain; linkers in the order of their positions; H or OH if unused. Non-standard residues stand in square brackets, D forms with d. Groups on a side chain read outwards from the residue. No end group written: not given here. *: point of attachment. C20 diacid = O=C(O)CCCCCCCCCCCCCCCCCCC(=O)*; γGlu = O=C(O)[C@H](CCC(=O)[*:2])N[*:1]; AEEA = NCCOCCOCC(=O)O; Aib = CC(C)(N)C(=O)O

What was measured:
hGCGR = hGCGR (human, UniProt P47871); test: competition, [125I]-glucagon radioligand
hGCGR, sequence (P47871 26-477): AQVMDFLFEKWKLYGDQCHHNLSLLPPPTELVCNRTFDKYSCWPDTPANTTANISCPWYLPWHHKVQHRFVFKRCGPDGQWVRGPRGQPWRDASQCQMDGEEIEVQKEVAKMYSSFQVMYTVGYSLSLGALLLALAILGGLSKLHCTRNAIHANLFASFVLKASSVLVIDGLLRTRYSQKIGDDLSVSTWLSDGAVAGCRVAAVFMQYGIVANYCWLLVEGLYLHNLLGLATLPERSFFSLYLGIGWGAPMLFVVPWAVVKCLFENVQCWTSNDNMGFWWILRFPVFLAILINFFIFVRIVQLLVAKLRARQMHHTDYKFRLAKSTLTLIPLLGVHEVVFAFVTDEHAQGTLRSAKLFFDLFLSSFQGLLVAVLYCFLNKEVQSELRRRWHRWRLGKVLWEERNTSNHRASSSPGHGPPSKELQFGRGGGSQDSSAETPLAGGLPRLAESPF

hGIPR = target: T1, hGIPR (human, UniProt P48546); test: competition, [125I]-GIP radioligand
T1 chain: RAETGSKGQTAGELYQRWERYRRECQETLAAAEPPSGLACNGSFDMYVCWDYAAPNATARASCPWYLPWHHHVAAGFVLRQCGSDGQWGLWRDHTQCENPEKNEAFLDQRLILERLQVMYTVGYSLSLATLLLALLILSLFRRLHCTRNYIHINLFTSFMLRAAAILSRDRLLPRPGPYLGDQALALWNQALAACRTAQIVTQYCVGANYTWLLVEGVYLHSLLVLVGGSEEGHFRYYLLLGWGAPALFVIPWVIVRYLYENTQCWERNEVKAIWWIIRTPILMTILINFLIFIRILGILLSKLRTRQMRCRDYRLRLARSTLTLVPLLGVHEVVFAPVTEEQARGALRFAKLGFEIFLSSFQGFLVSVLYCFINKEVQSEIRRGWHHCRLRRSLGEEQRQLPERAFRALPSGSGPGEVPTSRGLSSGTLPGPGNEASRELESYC

hGLP-1R = target: T2, hGLP-1R (human, UniProt P43220); test: competition, [125I]-GLP-1 radioligand
T2 chain: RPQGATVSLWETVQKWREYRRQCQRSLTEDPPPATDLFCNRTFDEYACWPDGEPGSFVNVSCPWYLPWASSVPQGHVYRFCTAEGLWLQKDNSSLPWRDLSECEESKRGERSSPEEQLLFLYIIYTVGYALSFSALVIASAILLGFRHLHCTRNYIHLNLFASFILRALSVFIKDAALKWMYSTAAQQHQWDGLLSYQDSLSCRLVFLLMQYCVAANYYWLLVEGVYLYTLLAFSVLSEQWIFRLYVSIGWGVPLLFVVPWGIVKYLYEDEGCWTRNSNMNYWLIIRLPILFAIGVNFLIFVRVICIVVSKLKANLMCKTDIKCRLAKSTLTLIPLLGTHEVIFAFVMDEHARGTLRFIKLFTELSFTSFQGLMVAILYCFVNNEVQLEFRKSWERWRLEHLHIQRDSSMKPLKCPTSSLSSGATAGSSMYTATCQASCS

B1: Example 1 (peptide)
chain: Y[Aib]EGTFTSDYSI[Aib]LDKIAQK([AEEA-AEEA-γGlu-C20 diacid])AFVQWLIAGGP-OH
modifications: N-terminus assumed
SMILES: CC[C@H](C)[C@H](NC(=O)[C@H](CC(C)C)NC(=O)[C@H](Cc1c[nH]c2ccccc12)NC(=O)[C@H](CCC(N)=O)NC(=O)[C@@H](NC(=O)[C@H](Cc1ccccc1)NC(=O)[C@H](C)NC(=O)[C@H](CCCCNC(=O)COCCOCCNC(=O)COCCOCCNC(=O)CC[C@H](NC(=O)CCCCCCCCCCCCCCCCCCC(=O)O)C(=O)O)NC(=O)[C@H](CCC(N)=O)NC(=O)[C@H](C)NC(=O)[C@@H](NC(=O)[C@H](CCCCN)NC(=O)[C@H](CC(=O)O)NC(=O)[C@H](CC(C)C)NC(=O)C(C)(C)NC(=O)[C@@H](NC(=O)[C@H](CO)NC(=O)[C@H](Cc1ccc(O)cc1)NC(=O)[C@H](CC(=O)O)NC(=O)[C@H](CO)NC(=O)[C@@H](NC(=O)[C@H](Cc1ccccc1)NC(=O)[C@@H](NC(=O)CNC(=O)[C@H](CCC(=O)O)NC(=O)C(C)(C)NC(=O)[C@@H](N)Cc1ccc(O)cc1)[C@@H](C)O)[C@@H](C)O)[C@@H](C)CC)[C@@H](C)CC)C(C)C)C(=O)N[C@@H](C)C(=O)NCC(=O)NCC(=O)N1CCC[C@H]1C(=O)O
Ki (hGCGR): > 240 nM | Ki (hGIPR): 0.32 nM | Ki (hGLP-1R): 10.9 nM
